Broadly, the stoichiometry N is the number of molecules, sites or subunits per partner or assembly.

Among the data in paper PMC11871015, “Unraveling the molecular basis of substrate specificity and halogen activation in vanadium-dependent haloperoxidases” (Nature Communications, 2025) are X-ray co-crystal structure and stoichiometry N values, retold here.

For test [1], the target named is T1, AmVHPO (vanadium-dependent haloperoxidase from Acaryochloris marina) (Acaryochloris marina, UniProt B0C4R0, R425S).
T1 construct: gene AM1_4975; codon-optimized synthetic gene in pET28-based vector, His-tag, E. coli BL21 (DE3); dodecamer (hexamer of dimers); active site/substrate tunnel formed by two adjacent subunits
The experiment in a line: X-ray co-crystal structure. In kind it is binding. The following applies: 1 mM TMB; phosphate in place of vanadate; site at interface of two adjacent subunits (Glu139, Gln399, Phe401); pH 8.5; 20 °C.

Test [2] addresses AmVHPO R425D mutant (vanadium-dependent haloperoxidase from Acaryochloris marina, R425D) (Acaryochloris marina MBIC 11017). The test is described as follows: crystal structure; hanging drop vapor diffusion at 20 °C, protein 15 mg/mL, reservoir 0.1 M Tris pH 8.5, 2 M NH4H2PO4, 0.5 mM K3VO4; R425S solved without and with 1 mM 1,3,5-trimethoxybenzene (TMB).
In test [3] the target is AmVHPO R425S mutant (vanadium-dependent haloperoxidase from Acaryochloris marina, R425S) (Acaryochloris marina MBIC 11017). Described as above.

T1 sequence (B0C4R0 entry or part of it R425S): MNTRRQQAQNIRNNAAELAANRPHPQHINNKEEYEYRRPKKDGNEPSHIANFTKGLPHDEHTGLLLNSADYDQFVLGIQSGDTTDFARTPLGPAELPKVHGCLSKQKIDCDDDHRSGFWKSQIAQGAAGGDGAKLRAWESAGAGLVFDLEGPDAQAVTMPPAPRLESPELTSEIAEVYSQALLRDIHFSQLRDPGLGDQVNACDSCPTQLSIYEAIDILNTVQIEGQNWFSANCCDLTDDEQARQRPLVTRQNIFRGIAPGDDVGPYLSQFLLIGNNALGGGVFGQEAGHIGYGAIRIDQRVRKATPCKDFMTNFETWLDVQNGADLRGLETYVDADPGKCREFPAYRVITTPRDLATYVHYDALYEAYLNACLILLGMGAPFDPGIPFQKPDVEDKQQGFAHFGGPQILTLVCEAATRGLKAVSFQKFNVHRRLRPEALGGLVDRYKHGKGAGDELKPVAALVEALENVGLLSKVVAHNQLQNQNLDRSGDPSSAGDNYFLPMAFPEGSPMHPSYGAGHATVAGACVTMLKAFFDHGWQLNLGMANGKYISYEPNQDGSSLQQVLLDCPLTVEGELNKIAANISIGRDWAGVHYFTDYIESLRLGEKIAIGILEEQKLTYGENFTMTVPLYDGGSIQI

With `COc1cc(OC)cc(OC)c1` [compound 7, 1,3,5-trimethoxybenzene], in test [1], the X-ray co-crystal structure is recorded as 8Q22 (AmVHPO R425S mutant with TMB). On to “AmVHPO R425D mutant (vanadium-dependent haloperoxidase from Acaryochloris marina, R425D) (enzyme)”, for which the stoichiometry N in test [2] stood at 12. For the compound “AmVHPO R425S mutant (vanadium-dependent haloperoxidase from Acaryochloris marina, R425S) (enzyme)”, the stoichiometry N in test [3] was determined as 12.
